Assay results published in patent publication US20230357323A1 (University of Washington, published 2023).
Changes are numbered by the printed parent chain. No end group written: not given here.

T1: human IL-23 cytokine (p19/p40 heterodimer) (human, UniProt Q9NPF7 20-189; P29460 23-328)
T1 construct: recombinant human IL-23 (R&D 1290-IL) is named for the cell assay; also called native ligand
T1 sequence (looked up) 1: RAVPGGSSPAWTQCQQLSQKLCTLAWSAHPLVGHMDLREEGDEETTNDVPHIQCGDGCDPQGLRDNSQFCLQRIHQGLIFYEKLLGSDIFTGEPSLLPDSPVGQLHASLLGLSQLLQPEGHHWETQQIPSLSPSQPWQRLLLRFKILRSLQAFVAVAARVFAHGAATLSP
T1 sequence (looked up) 2: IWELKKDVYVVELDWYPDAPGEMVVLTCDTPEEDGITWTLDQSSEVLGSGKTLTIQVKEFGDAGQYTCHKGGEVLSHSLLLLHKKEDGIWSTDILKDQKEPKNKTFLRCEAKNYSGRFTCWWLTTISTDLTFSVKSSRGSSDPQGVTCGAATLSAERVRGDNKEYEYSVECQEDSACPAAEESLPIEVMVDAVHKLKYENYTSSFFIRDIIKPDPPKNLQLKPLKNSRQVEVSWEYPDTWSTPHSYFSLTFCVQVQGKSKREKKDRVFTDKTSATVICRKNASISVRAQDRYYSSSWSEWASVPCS

B1: B04dslf02IB (designed binder)
chain: PLWQVFYLLNTCIKRTGDPTCKKLAKALRECLKKGDLKACNELADKAVKYINSHHHHHH
notes: purified form with C-terminal tag; also called B0402IB; BO4dslf02IB
B2: 23R_A (designed binder)
chain: MESEKYLRELVKKYYEGKLSVQEAVEEVRKYARKKGLEAWMLTWMFMELVKRYIHHHHHH
notes: purified from E. coli for BLI
B3: 23R_B (designed binder)
chain: NLWQIFYQLSTILKRTGDPTAKKLLKALAEALKKGDEKALKELAKKATKYIRSHHHHHH
notes: purified from E. coli for BLI
B4: B08 (designed binder)
chain: NLWQIFYVLNTIYKRTGDPTAKKLNKALREALKKHDEKATKELAKKATKYIRS
B5: human IL-23R (hIL-23R), custom construct with C-terminal avi and his tags, biotinylated (receptor, UniProt Q5VWK5 24-355, looked up, not shown: small tags and cut ends)
chain: GITNINCSGHIWVEPATIFKMGMNISIYCQAAIKNCQPRKLHFYKNGIKERFQITRINKTTARLWYKNFLEPHASMYCTAECPKHFQETLICGKDISSGYPPDIPDEVTCVIYEYSGNMTCTWNAGKLTYIDTKYVVHVKSLETEEEQQYLTSSYINISTDSLQGGKKYLVWVQAANALGMEESKQLQIHLDDIVIPSAAVISRAETINATVPKTIIYWDSQTTIEKVSCEMRYKATTNQTWNVKEFDTNFTYVQQSEFYLEPNIKYVFQVRCQETGKRYWQPWSSLFFHKTPETVPQVTSKAFQHDTWNSGLTVASISTGHLTSDNRGDIG
modifications: enzymatically biotinylated via the avi-tag
notes: immobilized on streptavidin tips in BLI, labeled target in FACS; also called human IL-23 receptor
B6: B0402SD (designed binder)
chain: PLWQIFYLLNTCIKRTGDPTCKKLIKALRECLKKGDPKACAELADKAMKYIMS
B7: B0402SE (designed binder)
chain: B6 chain with P1Q, I25K, P37A, A41K, L43A, M48V
B8: B0402SF (designed binder)
chain: B6 chain with P1E, P37A, A41S
B9: B0402SG (designed binder)
chain: B6 chain with P1E, D45K
B10: B0402IA (designed binder)
chain: PLWQVFYLLNTCIKRTGDPTCKKLAKALRECLKPGDVKACKEVADKAMDYIRS
B11: B0402IC (designed binder)
chain: PLWQIFYLLNTCIKRTGDPTCKVLSKALRECLKKGDVKACSELASKAEKYINS
B12: B0402ID (designed binder)
chain: ELWQVFYLLNTCIKRTCDPTCKKLAKALRECLKKGDLKACKEDAYKALDYIRS
B13: B0402IE (designed binder)
chain: NLWYIFYLLNTCIKRTCDPTCKVLAKALRECLKKGDLKACSELADKAVDYIRS
B14: rA11dslf02_M1P_R8Q_K35W (designed binder)
chain: PEPEKYLQELCKKYYEGKLSQQEAVEEIRKYARKWGLEAWKLVWYFMQCVKRDIHHHHHH

Key:
[1] = molecular target: B5; assay: SPR
[2] = molecular target: IL-23R on IL-23 reporter cells (Promega IL-23 Bioassay); assay: cell-based or functional assay
[3] = molecular target: IL-23R on IL-23 reporter cells (Promega IL-23 Bioassay); assay: cell-based or functional assay; remark: listed apart in the source
[4] = molecular target: B5; assay: biolayer interferometry titration, biotinylated hIL-23R immobilised on streptavidin tips, 1:1 fit
Description: (§1) Variants were first screened for relative binding to hIL-23R with biolayer interferometry (BLI). hIL-23R was immobilized on the BLI sensor tips and binding to each variant in solution at a constant concentration (50 nM) was measured to qualitatively determine relative performance of the variants. For the best-performing variants, binding constants (KD, including kₒₙ, and koff) were quantitatively determined with BLI titration experiments in triplicate.
(§2) Qualitative and quantitative assessment of binding affinity was performed using biolayer interferometry (ForteBio Octet™ […] and associated software for analysis). Enzymatically biotinylated target protein (30 nM) was immobilized on streptavidin-coated sensor tips, then sequentially dipped in wells with: buffer only (baseline), inhibitor in solution (association), and buffer only (dissociation). Kinetic constants were determined from the mathematical fit of a 1:1 binding model.

[5] = molecular target: B5; assay: BLI titration, biotinylated hIL-23R on streptavidin tips
Description: as §2

[6] = molecular target: B5; assay: biolayer interferometry titration, biotinylated hIL-23R immobilised on streptavidin tips
Description: as §1, §2

[7] = molecular target: T1, human IL-23 cytokine (p19/p40 …); assay: table of binding constants on hIL-23R; biolayer interferometry per paragraph 183 and paragraph 210, method not stated separately for this row
Description: as §1, §2

[8] = molecular target: T1, human IL-23 cytokine (p19/p40 …); assay: method not stated here (FIG. 2E lists constants of the native ligand)
[9] = molecular target: B5; assay: yeast display FACS
[10] = molecular target: B5; assay: yeast display FACS, SIF incubation then labeled hIL-23R, 5-7 rounds
Description: Yeast libraries were first incubated in SIF at 30C, then washed thoroughly and incubated with labeled hIL-23R, and cells retaining the highest binding signal (top 1-5%) were collected by FACS. Two rounds of selection were performed for each library, and the SIF incubation time and/or concentration of proteases were increased from first to second round. […] Indeed in several libraries we saw a large population of Myc-negative, binding-positive cells. In parallel, we performed two rounds of selection for binding to hIL-23R only, without pre-incubation in SIF. […] Best mutations were included in combinatorial libraries, sorted as above for 5-7 rounds after which individual clones were sequenced. Variants present in the final sorts were expressed in E. coli and characterized (SEQ ID NOS: 70-74 and 153-164).
Yeast strain EBY100 was transformed with each library and vector by electroporation and grow in minimal media selective for the yeast strain (-ura) and the transforming plasmid (-trp).²⁷ Expression was induced with 2% galactose. Surface expression was detected with anti-Myc-FITC (Immunology Consultants Laboratory) conjugate, and binding to biotinylated IL-23R was detected with streptavidin-PE (Invitrogen).
SIF SSM and combinatorial libraries were prepared as follows: after 16-24 hours induction, yeast were spun down, washed with PBSF, resuspended in SIF (recipe described below) at an OD of 2.0, and incubated at 30° C. shaking for 30-90 minutes as noted. After SIF digest, cells were spun down and washed 4 times with 800 uL PBSF, manually aspirating the supernatant each time to ensure complete washing to remove proteases. SIF-treated cells were then treated with target protein as described above.

Chain of IL-23R on IL-23 reporter cells (Promega IL-23 Bioassay) (Q5VWK5 whole entry): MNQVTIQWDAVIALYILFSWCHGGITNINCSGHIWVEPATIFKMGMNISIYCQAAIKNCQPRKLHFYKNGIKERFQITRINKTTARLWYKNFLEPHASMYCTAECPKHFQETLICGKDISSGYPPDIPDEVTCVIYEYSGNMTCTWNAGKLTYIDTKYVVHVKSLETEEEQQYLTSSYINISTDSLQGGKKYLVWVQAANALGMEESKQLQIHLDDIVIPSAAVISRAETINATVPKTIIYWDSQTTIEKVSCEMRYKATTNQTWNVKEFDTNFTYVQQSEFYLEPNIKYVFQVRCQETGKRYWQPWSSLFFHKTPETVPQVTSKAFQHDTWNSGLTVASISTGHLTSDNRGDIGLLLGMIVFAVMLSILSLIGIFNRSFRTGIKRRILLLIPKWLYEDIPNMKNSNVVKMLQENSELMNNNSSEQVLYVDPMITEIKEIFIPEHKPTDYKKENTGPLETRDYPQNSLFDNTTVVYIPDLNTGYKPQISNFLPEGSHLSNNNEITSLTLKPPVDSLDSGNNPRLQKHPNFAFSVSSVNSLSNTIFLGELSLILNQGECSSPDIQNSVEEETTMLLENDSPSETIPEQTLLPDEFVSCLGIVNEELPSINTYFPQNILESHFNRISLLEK

With B1 the Kd [1] was under 0.001 nM, the “Fold better than competitor (IC50 against that of PTG compound C, IL-23 reporter cell assay) [table]” value (from here on “Fold better than competitor”) [2] was 484 fold and the “IC50; inhibition of luciferase signal of IL-23 reporter cells stimulated with 8 ng/mL human IL-23 [table]” value (from here on “IC50; inhibition”) [2] was 0.016 µM. The “IC50 (read off the curve); IL-23-stimulated luciferase signal in IL-23 reporter cells [lower graph]” value [3] was about 0.04 µM.

With CRVCKNGFCVDARECWMAYYLLNQYN (designed binder, not fully specified (bridges); cysteine pairing not given here) [23R_mini_14_C4] the “Fold better than competitor” value [2] was 16 fold and the “IC50; inhibition” value [2] was 0.487 µM.

CKVKCGPVEFEATERWMCFYWYNKYC (designed binder, not fully specified (bridges); cysteine pairing not given here) [23R_mini_17_C11] was tested, and the “Fold better than competitor” value [2] was 27 fold and the “IC50; inhibition” value [2] was 0.281 µM.

Work on B2 yielded a koff [4] of 0.014 s⁻¹, a kon [4] of 560000 M⁻¹ s⁻¹ and a Kd [5] of 26 nM.

For B3, the Kd [4] was 50 nM, the koff [4] was 0.015 s⁻¹ and the kon [4] was 500000 M⁻¹ s⁻¹. The Kd [5] was 70 nM.

B4 gave a Kd [4] of 0.046 nM, a koff [4] of 4.6e-05 s⁻¹ and a kon [4] of 990000 M⁻¹ s⁻¹. It also gave a Kd [6] of 0.046 nM.

For B5, the Kd [7] was 1.69 nM, the koff [7] was 0.0013 s⁻¹ and the kon [7] was 780000 M⁻¹ s⁻¹. The Kd [8] was 1.7 nM.

ASPELKETCERLERLGMERWLILWCKQRAEEG (designed binder) [23R_mini_08]: binds [9].

B6: binds [10].

B7: binds [10].

B8: binds [10].

B9: binds [10].

B10: binds [10].

B11: binds [10].

B12: binds [10].

B13: binds [10].

B14 showed a Kd [1] of 0.075 nM.
